Article PMC11574045, “A cofactor-induced repressive type of transcription factor condensation can be induced by synthetic peptides to suppress tumorigenesis” (The EMBO Journal, 2024)

B1: ARID4A (protein, UniProt P29374 1-1257, looked up)
AT-rich interactive …: MKAADEPAYLTVGTDVSAKYRGAFCEAKIKTVKRLVKVKVLLKQDNTTQLVQDDQVKGPLRVGAIVETRTSDGSFQEAIISKLTDASWYTVVFDDGDERTLRRTSLCLKGERHFAESETLDQLPLTNPEHFGTPVIAKKTNRGRRSSLPVTEDEKEEESSEEEDEDKRRLNDELLGKVVSVVSATERTEWYPALVISPSCNDDITVKKDQCLVRSFIDSKFYSIARKDIKEVDILNLPESELSTKPGLQKASIFLKTRVVPDNWKMDISEILESSSSDDEDGPAEENDEEKEKEAKKTEEEVPEEELDPEERDNFLQQLYKFMEDRGTPINKPPVLGYKDLNLFKLFRLVYHQGGCDNIDSGAVWKQIYMDLGIPILNSAASYNVKTAYRKYLYGFEEYCRSANIQFRTVHHHEPKVKEEKKDLEESMEEALKLDQEMPLTEVKSEPEENIDSNSESEREEIELKSPRGRRRIARDVNSIKKEIEEEKTEDKLKDNDTENKDVDDDYETAEKKENELLLGRKNTPKQKEKKIKKQEDSDKDSDEEEEKSQEREETESKCDSEGEEDEEDMEPCLTGTKVKVKYGRGKTQKIYEASIKSTEIDDGEVLYLVHYYGWNVRYDEWVKADRIIWPLDKGGPKKKQKKKAKNKEDSEKDEKRDEERQKSKRGRPPLKSTLSSNMPYGLSKTANSEGKSDSCSSDSETEDALEKNLINEELSLKDELEKNENLNDDKLDEENPKISAHILKENDRTQMQPLETLKLEVGENEQIVQIFGNKMEKTEEVKKEAEKSPKGKGRRSKTKDLSLEIIKISSFGQNEAGSEPHIEAHSLELSSLDNKNFSSATEDEIDQCVKEKKLKRKILGQSSPEKKIRIENGMEMTNTVSQERTSDCIGSEGMKNLNFEQHFERENEGMPSLIAESNQCIQQLTSERFDSPAEETVNIPLKEDEDAMPLIGPETLVCHEVDLDDLDEKDKTSIEDVAVESSESNSLVSIPPALPPVVQHNFSVASPLTLSQDESRSVKSESDITIEVDSIAEESQEGLCERESANGFETNVASGTCSIIVQERESREKGQKRPSDGNSGLMAKKQKRTPKRTSAAAKNEKNGTGQSSDSEDLPVLDNSSKCTPVKHLNVSKPQKLARSPARISPHIKDGEKDKHREKHPNSSPRTYKWSFQLNELDNMNSTERISFLQEKLQEIRKYYMSLKSEVATIDRRRKRLKKKDREVSHAGASMSSASSDTGMSPSSSSPPQNVLAVECR
B2: HNF4G (protein, UniProt Q14541 1-408, looked up)
Hepatocyte nuclear factor …: MNTTDNGVNCLCAICGDRATGKHYGASSCDGCKGFFRRSIRKSHVYSCRFSRQCVVDKDKRNQCRYCRLRKCFRAGMKKEAVQNERDRISTRRSTFDGSNIPSINTLAQAEVRSRQISVSSPGSSTDINVKKIASIGDVCESMKQQLLVLVEWAKYIPAFCELPLDDQVALLRAHAGEHLLLGATKRSMMYKDILLLGNNYVIHRNSCEVEISRVANRVLDELVRPFQEIQIDDNEYACLKAIVFFDPDAKGLSDPVKIKNMRFQVQIGLEDYINDRQYDSRGRFGELLLLLPTLQSITWQMIEQIQFVKLFGMVKIDNLLQEMLLGGASNDGSHLHHPMHPHLSQDPLTGQTILLGPMSTLVHADQISTPETPLPSPPQGSGQEQYKIAANQASVISHQHLSKQKQL
B3: HOXC13 (protein, UniProt P31276 1-330, looked up)
Homeobox protein Hox-C13: MTTSLLLHPRWPESLMYVYEDSAAESGIGGGGGGGGGGTGGAGGGCSGASPGKAPSMDGLGSSCPASHCRDLLPHPVLGRPPAPLGAPQGAVYTDIPAPEAARQCAPPPAPPTSSSATLGYGYPFGGSYYGCRLSHNVNLQQKPCAYHPGDKYPEPSGALPGDDLSSRAKEFAFYPSFASSYQAMPGYLDVSVVPGISGHPEPRHDALIPVEGYQHWALSNGWDSQVYCSKEQSQSAHLWKSPFPDVVPLQPEVSSYRRGRKKRVPYTKVQLKELEKEYAASKFITKEKRRRISATTNLSERQVTIWFQNRRVKEKKVVSKSKAPHLHST
B4: HMG20A (protein, UniProt Q9NP66 1-347, looked up)
High mobility group protein …: MENLMTSSTLPPLFADEDGSKESNDLATTGLNHPEVPYSSGATSSTNNPEFVEDLSQGQLLQSESSNAAEGNEQRHEDEQRSKRGGWSKGRKRKKPLRDSNAPKSPLTGYVRFMNERREQLRAKRPEVPFPEITRMLGNEWSKLPPEEKQRYLDEADRDKERYMKELEQYQKTEAYKVFSRKTQDRQKGKSHRQDAARQATHDHEKETEVKERSVFDIPIFTEEFLNHSKAREAELRQLRKSNMEFEERNAALQKHVESMRTAVEKLEVDVIQERSRNTVLQQHLETLRQVLTSSFASMPLPGSGETPTVDTIDSYMNRLHSIILANPQDNENFIATVREVVNRLDR
B5: HEYL (protein, UniProt Q9NQ87 1-328, looked up)
Hairy/enhancer-of-split …: MKRPKEPSGSDGESDGPIDVGQEGQLSQMARPLSTPSSSQMQARKKHRGIIEKRRRDRINSSLSELRRLVPTAFEKQGSSKLEKAEVLQMTVDHLKMLHATGGTGFFDARALAVDFRSIGFRECLTEVIRYLGVLEGPSSRADPVRIRLLSHLNSYAAEMEPSPTPTGPLAFPAWPWSFFHSCPGLPALSNQLAILGRVPSPVLPGVSSPAYPIPALRTAPLRRATGIILPARRNVLPSRGASSTRRARPLERPATPVPVAPSSRAARSSHIAPLLQSSSPTPPGPTGSAAYVAVPTPNSSSPGPAGRPAGAMLYHSWVSEITEIGAF
B6: HMG20B (protein, UniProt Q9P0W2 1-317, looked up)
SWI/SNF-related …: MSHGPKQPGAAAAPAGGKAPGQHGGFVVTVKQERGEGPRAGEKGSHEEEPVKKRGWPKGKKRKKILPNGPKAPVTGYVRFLNERREQIRTRHPDLPFPEITKMLGAEWSKLQPTEKQRYLDEAEREKQQYMKELRAYQQSEAYKMCTEKIQEKKIKKEDSSSGLMNTLLNGHKGGDCDGFSTFDVPIFTEEFLDQNKAREAELRRLRKMNVAFEEQNAVLQRHTQSMSSARERLEQELALEERRTLALQQQLQAVRQALTASFASLPVPGTGETPTLGTLDFYMARLHGAIERDPAQHEKLIVRIKEILAQVASEHL
B7: HHEX (protein, UniProt Q03014 1-270, looked up)
Hematopoietically-expressed …: MQYPHPGPAAGAVGVPLYAPTPLLQPAHPTPFYIEDILGRGPAAPTPAPTLPSPNSSFTSLVSPYRTPVYEPTPIHPAFSHHSAAALAAAYGPGGFGGPLYPFPRTVNDYTHALLRHDPLGKPLLWSPFLQRPLHKRKGGQVRFSNDQTIELEKKFETQKYLSPPERKRLAKMLQLSERQVKTWFQNRRAKWRRLKQENPQSNKKEELESLDSSCDQRQDLPSEQNKGASLDSSQCSPSPASQEDLESEISEDSDQEVDIEGDKSYFNAG
B8: HMBOX1 (protein, UniProt Q6NT76 1-420, looked up)
Homeobox-containing protein 1: MLSSFPVVLLETMSHYTDEPRFTIEQIDLLQRLRRTGMTKHEILHALETLDRLDQEHSDKFGRRSSYGGSSYGNSTNNVPASSSTATASTQTQHSGMSPSPSNSYDTSPQPCTTNQNGRENNERLSTSNGKMSPTRYHANSMGQRSYSFEASEEDLDVDDKVEELMRRDSSVIKEEIKAFLANRRISQAVVAQVTGISQSRISHWLLQQGSDLSEQKKRAFYRWYQLEKTNPGATLSMRPAPIPIEDPEWRQTPPPVSATSGTFRLRRGSRFTWRKECLAVMESYFNENQYPDEAKREEIANACNAVIQKPGKKLSDLERVTSLKVYNWFANRRKEIKRRANIEAAILESHGIDVQSPGGHSNSDDVDGNDYSEQDDSTSHSDHQDPISLAVEMAAVNHTILALARQGANEIKTEALDDD
B9: HMX2 (protein, UniProt A2RU54 1-273, looked up)
Homeobox protein HMX2: MGSKEDAGKGCPAAGGVSSFTIQSILGGGPSEAPREPVGWPARKRSLSVSSEEEEPDDGWKAPACFCPDQHGPKEQGPKHHPPIPFPCLGTPKGSGGSGPGGLERTPFLSPSHSDFKEEKERLLPAGSPSPGSERPRDGGAERQAGAAKKKTRTVFSRSQVYQLESTFDMKRYLSSSERACLASSLQLTETQVKTWFQNRRNKWKRQLSAELEAANMAHASAQTLVSMPLVFRDSSLLRVPVPRSLAFPAPLYYPGSNLSALPLYNLYNKLDY
B10: ARID3C (protein, UniProt A6NKF2 1-412, looked up)
AT-rich interactive …: MEALQKQQAARLAQGVGPLAPACPLLPPQPPLPDHRTLQAPEGALGNVGAEEEEDAEEDEEKREEAGAEEEAAEESRPGAQGPSSPSSQPPGLHPHEWTYEEQFKQLYELDADPKRKEFLDDLFSFMQKRGTPVNRVPIMAKQVLDLYALFRLVTAKGGLVEVINRKVWREVTRGLSLPTTITSAAFTLRTQYMKYLYPYECETRALSSPGELQAAIDSNRREGRRQAYTATPLFGLAGPPPRGAQDPALGPGPAPPATQSSPGPAQGSTSGLPAHACAQLSPSPIKKEESGIPNPCLALPVGLALGPTREKLAPEEPPEKRAVLMGPMDPPRPCMPPSFLPRGKVPLREERLDGPLNLAGSGISSINMALEINGVVYTGVLFARRQPVPASQGPTNPAPPPSTGPPSSILP
B11: HLF (protein, UniProt Q16534 1-295, looked up)
Hepatic leukemia factor: MEKMSRPLPLNPTFIPPPYGVLRSLLENPLKLPLHHEDAFSKDKDKEKKLDDESNSPTVPQSAFLGPTLWDKTLPYDGDTFQLEYMDLEEFLSENGIPPSPSQHDHSPHPPGLQPASSAAPSVMDLSSRASAPLHPGIPSPNCMQSPIRPGQLLPANRNTPSPIDPDTIQVPVGYEPDPADLALSSIPGQEMFDPRKRKFSEEELKPQPMIKKARKVFIPDDLKDDKYWARRRKNNMAAKRSRDARRLKENQIAIRASFLEKENSALRQEVADLRKELGKCKNILAKYEARHGPL
B12: HLX (protein, UniProt Q14774 1-488, looked up)
H2.0-like homeobox protein: MFAAGLAPFYASNFSLWSAAYCSSAGPGGCSFPLDPAAVKKPSFCIADILHAGVGDLGAAPEGLAGASAAALTAHLGSVHPHASFQAAARSPLRPTPVVAPSEVPAGFPQRLSPLSAAYHHHHPQQQQQQQQPQQQQPPPPPRAGALQPPASGTRVVPNPHHSGSAPAPSSKDLKFGIDRILSAEFDPKVKEGNTLRDLTSLLTGGRPAGVHLSGLQPSAGQFFASLDPINEASAILSPLNSNPRNSVQHQFQDTFPGPYAVLTKDTMPQTYKRKRSWSRAVFSNLQRKGLEKRFEIQKYVTKPDRKQLAAMLGLTDAQVKVWFQNRRMKWRHSKEAQAQKDKDKEAGEKPSGGAPAADGEQDERSPSRSEGEAESESSDSESLDMAPSDTERTEGSERSLHQTTVIKAPVTGALITASSAGSGGSSGGGGNSFSFSSASSLSSSSTSAGCASSLGGGGASELLPATQPTASSAPKSPEPAQGALGCL
B13: HMG1 (protein, UniProt P09429 1-215, looked up)
High mobility group protein B1: MGKGDPKKPRGKMSSYAFFVQTCREEHKKKHPDASVNFSEFSKKCSERWKTMSAKEKGKFEDMAKADKARYEREMKTYIPPKGETKKKFKDPNAPKRPPSAFFLFCSEYRPKIKGEHPGLSIGDVAKKLGEMWNNTAADDKQPYEKKAAKLKEKYEKDIAAYRAKGKPDAAKKGVVKAEKSKKKKEEEEDEEDEEDEEEEEDEEDEDEEEDDDDE

system: HEK293FT cells transfected with TF library; assay: Screening of TF condensates based on fluorescent puncta; assay type: cell-based; details: Figure 1B numerical data; TF library screen, one value per transcriptional factor
In short: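 Condensate formation is scored as Alexa 488-labelled puncta after Flag- or GAL4-tag immunostaining of fixed HEK293FT cells expressing individual TFs, with a 12 h glucose-free or glucose-containing culture preceding fixation.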

Molecule | Z score of condensed fraction
B1 | 0.8979
B2 | 0.7637
B3 | -0.9976
B4 | -0.5061
B5 | 1.497
B6 | -0.2795
B7 | -0.4373
B8 | -0.9564
B9 | 0.8931
B10 | 0.4617
B11 | 2.55
B12 | 2.079
B13 | 1.213
